These results are taken from patent US20040072184.

One data set concerns the target T1, CREBtide.
T1 chain: KRREILSRRPSYR

In data set [1] the target is T2, Calmodulin Dependent Protein Kinase Substrate.
T2 chain: PLSRTLSVSS

The target of another data set is T3, Syntide 2.
T3 chain: PLARTLSVAGLPGKK

Another data set deals with T4, GST-SGK2 fusion protein.
T4 chain: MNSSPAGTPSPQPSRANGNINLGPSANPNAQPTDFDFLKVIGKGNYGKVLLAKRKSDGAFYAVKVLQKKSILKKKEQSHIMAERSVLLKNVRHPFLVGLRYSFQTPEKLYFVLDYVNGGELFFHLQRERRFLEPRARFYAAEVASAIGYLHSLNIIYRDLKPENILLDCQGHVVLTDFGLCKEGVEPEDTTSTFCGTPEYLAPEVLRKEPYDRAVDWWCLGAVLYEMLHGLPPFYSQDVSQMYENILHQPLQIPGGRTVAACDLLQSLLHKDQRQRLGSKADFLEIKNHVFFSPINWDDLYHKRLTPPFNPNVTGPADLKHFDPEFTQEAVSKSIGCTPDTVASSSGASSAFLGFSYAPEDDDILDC

A further data set has as its target T5, PKB-sub peptide.
T5 chain: CKRPRAASFAE

Chain of PDK1 peptide (chain, as listed by the source): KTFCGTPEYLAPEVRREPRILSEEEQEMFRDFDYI

B1: X-press-CaMK-X1 fusion protein (protein)
chain: MGRKEEDDCSSWKKQTTNIRKTFIFMEVLGSGAFSEVFLVKQRLTGKLFALKCIKKSPAFRDSSLENEIAVLKKIKHENIVTLEDIYESTTHYYLVMQLVSGGELFDRILERGVYTEKDASLVIQQVLSAVKYLHENGIVHRDLKPENLLYLTPEENSKIMITDFGLSKMEQNGIMSTACGTPGYVAPEVLAQKPYSKAVDCWSIGVITYILLCGYPPFYEETESKLFEKIKEGYYEFESPFWDDISESAKDFICHLLEKDPNERYTCEKALSHPWIDGNTALHRDIYPSVSLQIQKNFAKSKWRQAFNAAAVVHHMRKLHMNLHSPGVRPEVENRPPETQASETSRPSSPEITITEAPVLDHSVALPALTQLPCQHGRRPTAPGGRSLNCLVNGSLHISSSLVPMHQGSLAAGPCGCCSSCLNIGSKGKSSYCSEPTLLKKANKKQNFKSEVMVPVKASGSSHCRAGQTGVCLIM
On to B1, for which the “in vitro kinase assay (32P incorporation) with immunoprecipitated CaMK-X1” value is “CaMK-X1 phosphorylated CREBtide and Syntide 2 in vitro” with CREBtide; “CaMK-X1 could not phosphorylate control peptide” in data set [1]; “CaMK-X1 phosphorylated CREBtide and Syntide 2 in vitro” with Syntide 2.

B2: Histidine tagged CaMK-X1 expressed in Sf9 cells (protein)
chain: MGRKEEDDCSSWKKQTTNIRKTFIFMEVLGSGAFSEVFLVKQRLTGKLFALKCIKKSPAFRDSSLENEIAVLKKIKHENIVTLEDIYESTTHYYLVMQLVSGGELFDRILERGVYTEKDASLVIQQVLSAVKYLHENGIVHRDLKPENLLYLTPEENSKIMITDFGLSKMEQNGIMSTACGTPGYVAPEVLAQKPYSKAVDCWSIGVITYILLCGYPPFYEETESKLFEKIKEGYYEFESPFWDDISESAKDFICHLLEKDPNERYTCEKALSHPWIDGNTALHRDIYPSVSLQIQKNFAKSKWRQAFNAAAVVHHMRKLHMNLHSPGVRPEVENRPPETQASETSRPSSPEITITEAPVLDHSVALPALTQLPCQHGRRPTAPGGRSLNCLVNGSLHISSSLVPMHQGSLAAGPCGCCSSCLNIGSKGKSSYCSEPTLLKKANKKQNFKSEVMVPVKASGSSHCRAGQTGVCLIM
Take B2: the “in vitro kinase assay (32P incorporation) with Ni2+ column purified CaMK-X1” value with CREBtide was “CREBtide and Syntide 2 are phosphorylated by the purified CaMK-X1”; in data set [1], “Syntide 2and CREBtide had higher incorporation of ^32p than the control peptide”; with Syntide 2, “CREBtide and Syntide 2 are phosphorylated by the purified CaMK-X1”.

B3: GST-DM-PK fusion protein (protein)
chain: MSAEVRLRRLQQLVLDPGFLGLEPLLDLLLGVHQELGASELAQDKYVADFLQWAEPIVVRLKEVRLQRDDFEILKVIGRGAFSEVAVVKMKQTGQVYAMKIMNKWDMLKRGEVSCFREERDVLVNGDRRWITQLHFAFQDENYLYLVMEYYVGGDLLTLLSKFGERIPAEMARFYLAEIVMAIDSVHRLGYVHRDIKPDNILLDRCGHIRLADFGSCLKLRADGTVRSLVAVGTPDYLSPEILQAVGGGPGTGSYGPECDWWALGVFAYEMFYGQTPFYADSTAETYGKIVHYKEHLSLPLVDEGVPEEARDFIQRLLCPPETRLGRGGAGDFRTHPFFFGLDWDGLRDSVPPFTPDFEGATDTCNFDLVEDGLTAMVSGGGETLSDIREGAPLGVHLPFVGYSYSCMALRDSEVPGPTPMEVEAEQLLEPHVQAPSLEPSVSPQDETAEVAVPAAVPAAEAEAEVTLRELQEALEEEVLTRQSLSREMEAIRTDNQNFASQLREAEARNRDLEAHVRQLQERMELLQAEGATAVTGVPSPRATDPPSHLDGPPAVAVGQCPLVGPGPMHRRHLLLPARVPRPGLSEALSLLLFAVVLSRAAALGCIGLVAHAGQLTAVWRRPGAARAP
For B3, the “in vitro kinase assay with DM-PK purified from E. coli” value with Histone H1 is “MBP and Histone H1 were both phosphorylated by purified DM-PK in these assays”; in the data set with MBP, “MBP and Histone H1 were both phosphorylated by purified DM-PK in these assays”.

B4: His-tag PDK1 (protein)
chain: MARTTSQLYDAVPIQSSVVLCSCPSPSMVRTQTESSTPPGIPGGSRQGPAMDGTAAEPRPGAGSLQHAQPPPQPRKKRPEDFKFGKILGEGSFSTVVLARELATSREYAIKILEKRHIIKENKVPYVTRERDVMSRLDHPFFVKLYFTFQDDEKLYFGLSYAKNGELLKYIRKIGSFDETCTRFYTAEIVSALEYLHGKGIIHRDLKPENILLNEDMHIQITDFGTAKVLSPESKQARANSFVGTAQYVSPELLTEKSACKSSDLWALGCIIYQLVAGLPPFRAGNEYLIFQKIIKLEYDFPEKFFPKARDLVEKLLVLDATKRLGCEEMEGYGPLKAHPFFESVTWENLHQQTPPKLTAYLPAMSEDDEDCYGNYDNLLSQFGCMQVSSSSSSHSLSASDTGLPQRSGSNIEQYIHDLDSNSFELDLQFSEDEKRLLLEKQAGGNPWHQFVENNLILKMGPVDKRKGLFARRRQLLLTEGPHLYYVDPVNKVLKGEIPWSQELRPEAKNFKTFFVHTPNRTYYLMDPSGNAHKWCRKIQEVWRQRYQSHPDAAVQ
For B4, in the data set with GST-SGK2 fusion protein, the “32P phosphorylation of SGK2 after incubation with PDK1, SDS-PAGE” value is recorded as “SGK2 activated by PKD1 was significantly phosphorylated, while non-activated SGK2 was not” and the “in vitro kinase activity of SGK2 after activation by PDK1” value is “the PDK1 activated SGK2 had significantly higher kinase activity compared to non-activated SGK2”.

B5: GST-SGK2 fusion protein (protein)
chain: MNSSPAGTPSPQPSRANGNINLGPSANPNAQPTDFDFLKVIGKGNYGKVLLAKRKSDGAFYAVKVLQKKSILKKKEQSHIMAERSVLLKNVRHPFLVGLRYSFQTPEKLYFVLDYVNGGELFFHLQRERRFLEPRARFYAAEVASAIGYLHSLNIIYRDLKPENILLDCQGHVVLTDFGLCKEGVEPEDTTSTFCGTPEYLAPEVLRKEPYDRAVDWWCLGAVLYEMLHGLPPFYSQDVSQMYENILHQPLQIPGGRTVAACDLLQSLLHKDQRQRLGSKADFLEIKNHVFFSPINWDDLYHKRLTPPFNPNVTGPADLKHFDPEFTQEAVSKSIGCTPDTVASSSGASSAFLGFSYAPEDDDILDC
Take B5: the “in vitro kinase assay (32P incorporation) with purified SGK2” value is “addition of same amount of control peptide (PDK1 peptide) had no significant incorporation” with PDK1 peptide and “PKB-sub had significant incorporation of ^32P” with PKB-sub peptide.
